In the supplement of paper PMC7877785:
± gives the uncertainty stated by the source.

Test: self-splicing fitness, log relative to wild type (ln ratio); higher = more splicing; Tetrahymena group I intron in knt gene, E. coli kanamycin selection, DiMSum; sequences stand for … in CUCUCU…GGAGGGAAAAGUUAUCAGGCAUGCACCUGGUAGCUAGUCUUUAAACCAAUAGAUUGCAUCGGUUUAAAAGGCAAGACCGUCAAAUUGCGGGAAAGGGGUCAACAGCCGUUCAGUACCAAGUCUCAGGGGAAACUUUGAGAUGGCCUUGCAAAGGGUAUGGUAAUAAGCUGACGGACAUGGUCCUAACCACGCAGCCAAGUCCUAAGUCAACAGAUCUUCUGUUGAUAUGGAUGCAGUUCACAGACUAAAUGUCGGUCGGGGAAGAUGUAUUCUUCUCAUAAGAUAUAGUCGGACCUCUCCUUAAUGGGAGCUAGCGGAUGAAGUGAUGCAACACUGGAGCCGCUGGGAACUAAUUUGUAUGCGAAAGUAUAUUGAUUAGUUUUGGAGUACUCGUGGUCG
How it was run: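 The eight P1ex-region nucleotides of an intron in the knt kanamycin-resistance gene on pET-22b(+) were all randomised and the library put into E. coli BL21(DE3). Six replicate transformations were grown overnight at 37°C or 30°C on LB agar with or without 25 μg/mL kanamycin, together with 100 μg/mL carbenicillin, 50 μM IPTG and 0.2% rhamnose. Colonies were pooled and amplicon-sequenced on an Illumina HiSeq 2500. Fitness from DiMSum is the error-weighted combination of wild-type-normalised replicate fold changes, kanamycin over none.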

Sequence | self-splicing fitness (ln) (30 °C) | self-splicing fitness (ln) (37 °C)
CUGGAGCAAUAUUACGUGGG | -3.7 ± 0.2 | -2.52 ± 0.26
UGAUAGCAAUAUUACGUAAC | -3.41 ± 0.17 | -2.76 ± 0.22
UUUCAGCAAUAUUACGCGAC | -2.9 ± 0.37 | 
AGCGAGCAAUAUUACGUUCA | -1.81 ± 0.096 | -0.891 ± 0.091
UGAGAGCAAUAUUACGCGUU | -3.23 ± 0.2 | -3.69 ± 0.34
CUGCAGCAAUAUUACGACCG | 0.161 ± 0.088 | 0.198 ± 0.12
CGAUAGCAAUAUUACGCAAA | -2.98 ± 0.29 | -1.92 ± 0.15
CAUUAGCAAUAUUACGGUAA | -2.31 ± 0.14 | -2.26 ± 0.14
CACGAGCAAUAUUACGUCAU | -3.65 ± 0.19 | -2.49 ± 0.21
CCCUAGCAAUAUUACGAUAC | -2.76 ± 0.38 | 
AUGGAGCAAUAUUACGAUGC | -2.15 ± 0.37 | -2.04 ± 0.35
UCCCAGCAAUAUUACGUUUA | -2.21 ± 0.12 | -1.79 ± 0.13
ACUAAGCAAUAUUACGACCA | -0.124 ± 0.23 | 0.571 ± 0.2
ACACAGCAAUAUUACGCGGU | -4.42 ± 0.23 | -2.89 ± 0.17
CACCAGCAAUAUUACGGCCA | -0.747 ± 0.067 | -1.22 ± 0.082
UCACAGCAAUAUUACGAUUG | -2.97 ± 0.12 | -1.34 ± 0.11
CAUCAGCAAUAUUACGAGAU | -3.84 ± 0.18 | -3.71 ± 0.21
ACGUAGCAAUAUUACGCAGA | -3.08 ± 0.27 | -2.48 ± 0.18
CUAAAGCAAUAUUACGAUCU | -4.75 ± 0.23 | -2.5 ± 0.18
AGCGAGCAAUAUUACGGAAC | -3.53 ± 0.32 | -1.5 ± 0.29
AAGGAGCAAUAUUACGAUUC | -1.13 ± 0.19 | -1.78 ± 0.48
CGUUAGCAAUAUUACGAUAA | -2.9 ± 0.26 | -1.52 ± 0.22
CCACAGCAAUAUUACGGCAC | -4.06 ± 0.21 | -2.87 ± 0.22
AGAAAGCAAUAUUACGCUUG | -2.37 ± 0.15 | -1.73 ± 0.18
AGAGAGCAAUAUUACGCUGA | -2.75 ± 0.18 | -2.94 ± 0.28

Sequence | self-splicing fitness (ln) (30 °C) | self-splicing fitness (ln) (37 °C)
GCAGAGCAAUAUUACGUAAG | -1.79 ± 0.16 | -1.88 ± 0.23
UAUGAGCAAUAUUACGACAA | -2.78 ± 0.29 | -0.6 ± 0.18
CUGUAGCAAUAUUACGUAUG | -0.387 ± 0.11 | -0.224 ± 0.16
GUCAAGCAAUAUUACGGCUA | -1.28 ± 0.073 | -0.658 ± 0.066
CAUCAGCAAUAUUACGGGCU | -4.04 ± 0.31 | -2.48 ± 0.2
GUACAGCAAUAUUACGCCAA |  | -1.7 ± 0.29
GUCUAGCAAUAUUACGAAGU | -1.23 ± 0.19 | -0.107 ± 0.14
UUUCAGCAAUAUUACGAGCA | -1.41 ± 0.14 | -0.671 ± 0.12
GAAUAGCAAUAUUACGCUCU | -1.58 ± 0.12 | -1.4 ± 0.14
CUAGAGCAAUAUUACGCUAU |  | -2.47 ± 0.48
UGGCAGCAAUAUUACGUCUG | -1.31 ± 0.082 | -0.936 ± 0.11
CAAGAGCAAUAUUACGGGUU | -3.54 ± 0.18 | -3.25 ± 0.23
CGAAAGCAAUAUUACGGCUA | -1.72 ± 0.13 | -1.6 ± 0.14
UAGAAGCAAUAUUACGGCAC | -2.42 ± 0.09 | -1.89 ± 0.095
AAAGAGCAAUAUUACGGAUA | -2.75 ± 0.27 | -1.92 ± 0.3
UACGAGCAAUAUUACGCGAU | -4.05 ± 0.3 | -2.28 ± 0.22
AAGGAGCAAUAUUACGUUUG | -3.57 ± 0.42 | -2.82 ± 0.23
GUGGAGCAAUAUUACGAUCC | -2.49 ± 0.2 | -1.13 ± 0.28
CAUUAGCAAUAUUACGAAGA | -3.8 ± 0.43 | -0.417 ± 0.23
ACGUAGCAAUAUUACGUAUC | -3.45 ± 0.24 | -2.89 ± 0.26
GGAGAGCAAUAUUACGGGAC | -2.46 ± 0.23 | -0.231 ± 0.32
AGUGAGCAAUAUUACGGUUG | -3.38 ± 0.27 | -1.92 ± 0.24
ACACAGCAAUAUUACGGGGC | -2.8 ± 0.16 | -3.16 ± 0.19
CCCGAGCAAUAUUACGCCUG | -4.16 ± 0.39 | 
AAGUAGCAAUAUUACGUGUA | -1.98 ± 0.13 | -1.41 ± 0.14

Sequence | self-splicing fitness (ln) (30 °C) | self-splicing fitness (ln) (37 °C)
AGGUAGCAAUAUUACGCUUC | -3.52 ± 0.036 | -2.83 ± 0.054
GUAGAGCAAUAUUACGGAGG |  | -1.69 ± 0.43
GUUUAGCAAUAUUACGUAAC | -2.2 ± 0.29 | -1.96 ± 0.39
CUCAAGCAAUAUUACGCUUU | -4.09 ± 0.37 | -3.52 ± 0.31
UCCUAGCAAUAUUACGCCGG |  | -1.88 ± 0.3
CUCUAGCAAUAUUACGUAAU | -3.59 ± 0.26 | -3.77 ± 0.46
UAGAAGCAAUAUUACGUCGC | -3.7 ± 0.38 | -2.21 ± 0.32
CGUCAGCAAUAUUACGGUGG | -1.26 ± 0.071 | -0.629 ± 0.096
CGUCAGCAAUAUUACGUCAA | -2.64 ± 0.11 | -1.61 ± 0.1
CGUAAGCAAUAUUACGAUAG | -1.72 ± 0.093 | -0.661 ± 0.11
AGUAAGCAAUAUUACGGUCU | -0.432 ± 0.093 | -0.488 ± 0.11
AGGCAGCAAUAUUACGGCAC | -0.991 ± 0.085 | -0.533 ± 0.13
CCUUAGCAAUAUUACGAGGA | -2.8 ± 0.25 | -1.69 ± 0.27
GGCCAGCAAUAUUACGAUCU | -0.383 ± 0.06 | -0.133 ± 0.078
UUGAAGCAAUAUUACGGACA | 0.534 ± 0.1 | 0.655 ± 0.14
GACCAGCAAUAUUACGGGUU | -4.24 ± 0.21 | -2.53 ± 0.18
UACAAGCAAUAUUACGGCCA | -0.557 ± 0.14 | 0.111 ± 0.16
GUGAAGCAAUAUUACGGUGU | -1.8 ± 0.063 | -0.777 ± 0.082
CGACAGCAAUAUUACGGAUU | -3.77 ± 0.17 | -1.73 ± 0.099
ACCAAGCAAUAUUACGAAAA | -3.44 ± 0.2 | -2.91 ± 0.23
UAGCAGCAAUAUUACGUUUG | -1.29 ± 0.077 | -1.12 ± 0.11
UGGGAGCAAUAUUACGCUGC |  | -1.15 ± 0.28
CUGCAGCAAUAUUACGUCAU | -2.86 ± 0.14 | -2.06 ± 0.13
AUAGAGCAAUAUUACGCGUG | -0.385 ± 0.11 | -1.09 ± 0.13
UUAAAGCAAUAUUACGAUGG | 0.00244 ± 0.084 | 0.04 ± 0.1

Sequence | self-splicing fitness (ln) (30 °C) | self-splicing fitness (ln) (37 °C)
UGAAAGCAAUAUUACGGCUU | -1.62 ± 0.13 | -1.81 ± 0.2
AACAAGCAAUAUUACGGUUU | -2.73 ± 0.1 | -1.08 ± 0.086
AAUCAGCAAUAUUACGACUG | -0.833 ± 0.097 | 0.27 ± 0.11
CUGAAGCAAUAUUACGCAGA | -3.67 ± 0.19 | -2.71 ± 0.21
ACCUAGCAAUAUUACGCUGA | -1.59 ± 0.082 | -0.127 ± 0.09
GGGUAGCAAUAUUACGGUCA | 0.229 ± 0.18 | -0.659 ± 0.18
AGCGAGCAAUAUUACGAUCU | -0.233 ± 0.09 | -0.579 ± 0.12
UGCUAGCAAUAUUACGGGCG | -1.45 ± 0.1 | -1.82 ± 0.11
CACCAGCAAUAUUACGAAGA | -3.26 ± 0.21 | -1.81 ± 0.2
CACUAGCAAUAUUACGUCAA | -3.77 ± 0.22 | -2.27 ± 0.14
GUACAGCAAUAUUACGCCGC | -3.01 ± 0.24 | -2.46 ± 0.45
ACAGAGCAAUAUUACGUGUU | -2.64 ± 0.12 | -2.51 ± 0.18
CCCUAGCAAUAUUACGAUCC |  | -1.26 ± 0.45
AGGGAGCAAUAUUACGAUGA | -3.54 ± 0.37 | -2.7 ± 0.41
ACAUAGCAAUAUUACGGCAA | -0.85 ± 0.09 | -0.569 ± 0.084
UACUAGCAAUAUUACGAACU | -1.14 ± 0.21 | -1.51 ± 0.25
AAUUAGCAAUAUUACGGGUA | -1.52 ± 0.11 | -0.428 ± 0.098
CCGCAGCAAUAUUACGUGAG | -0.587 ± 0.038 | -0.367 ± 0.051
CCAUAGCAAUAUUACGCCCG | -0.369 ± 0.16 | 0.418 ± 0.21
GUAAAGCAAUAUUACGCCGA | -0.859 ± 0.11 | -0.839 ± 0.14
GGAGAGCAAUAUUACGUCCG | -1.5 ± 0.1 | -0.937 ± 0.13
UCUCAGCAAUAUUACGUAGG | -0.566 ± 0.053 | -0.133 ± 0.1
UGCAAGCAAUAUUACGAGGG | -3.56 ± 0.23 | -1.77 ± 0.17
